Laboratory results published in the DeepSol protein solubility set.

Assay: soluble on expression in E. coli; label from the status in PepcDB or PDB records

Sequence | soluble on expression in E. coli
NYAPAVAEAFYRGIPLVAVTADRPAEWIDQDEGQTIRQEGAMAGFVKSYCSLRAEFDTSASAWYANRRLNEVLNHALMPRRGPVHINMSFCEPLYGTSSGYSGKERAITFVRERQELPEEVWDMLVKRFLEAPRVMIVAGFYPPDEDVSAALQDICKFPHTVLFAESLSNIRTDTGICTADRVLAAAGEDESLYPELLISFGGSLISRMLKTFLRRAKPAEHWGIDERFPAPDTFCALTHHICTGASGFWKEFAGRLKDKAPESLSPEGISYAGSWQKIKRKADLLHRTFMADAGWSDLKAFEVILRHIPHDAALHAANSTPVRYLQLFEHAHYAGGEWSNRGTNGIEGATSTAMGFSE | not soluble
MAHHHHHHMLRHLFRCTAAWAPKRSATREQRLKERVAARMELEAQVKSRVACYPHRSLTRPALRLERHQVNTPLFHSQLLNLNKMATDLQCISFSAPKGHWDAAIVLIKGHPNEANFEVWVNPTVPGYDDRHSIAPMYGMWENCISCGACTAWVIRPQSITCSGLDEYGNEKTEVLDGMRARCLMHELDHLSGRTILDQAQGPEFIVSGIAMGQRDLWPPNFPSAEAYMTSPHQFFDYVKNGPIIPPG | not soluble
MKLIVVTTPTFFVEEDKIITALFEEGLDILHLRKPETPAMYSERLLTLIPEKYHRRIVTHEHFYLKEEFNLMGIHLNARNPSEPHDYAGHVSCSCHSVEEVKNRKHFYDYVFMSPIYDSISKVNYYSTYTAEELREAQKAKIIDSKVMALGGINEDNLLEIKDFGFGGAVVLGDLWNKFDACLDQNYLAVIEHFKKLKKLADLEHHHHHH | soluble
FDFKAGEEVLARWTDCRYYPAKIEAINKEGTFTVQFYDGVIRCLKRMHIKAMPEDAKGQDWIALVKA | soluble
RRYWVVLDGNFEDYLKKFSAKSRNTLLRKIKRFAELSGGEIDWREYCKPEEMHEFYKLAMEVSQKTYQERLLDCGLPSDQQFQENMLALAAEDNVRGYLLFYQKKPIAYIYCPVHDGIALYEYVGHDPEYQRWSPGTLLQYFALQRMFTASHIKIFDFTEGEGAHKAFFATNNQYCADVYYFRR | not soluble
MGSDKIHHHHHHMFDLNDLFYFVQVVECRGFAPASRKLGIPKSKLSRRIAGLEERLGVSLIHRSTRKFAVTESGRDYYGHCVAMLVEADAAEEAIQRSKSEPQGKVVISCPPAMAAMGINEAIAGFMAAHPKVQVHIESTNRRVDPLIENIDIALRVRFPPLEDDGLVVKTLGHSAQRLVAHPDLAALLPANASFEALARLPSLDVTSSTPEHRWLLENGPGHYVEVRHAPRLVSSDLDAILQAALQGVGVAQLPEILVREALQQGRMVELFDAHRPKCGILHAVFVSRRGLLPAVRGLLDAFESSFTELTHNPESLYCSLHRTNSRIQGD | not soluble
SHPGIDSMSSNINCENNPFSFYGNPHKSVIIHGKEGTELLKEKGEDCKTFENSQQYFLWCCVQQQMYHYQLLSTAFASYGFEPPRIPGAFPHHIPPIFNGSMKCLRDREVFNQSGFLYVNVSPDTYQETRQEAPVEQRNQWSEKSKTTSKKSICKVLFECTNSSLLENAENRSIFSKQGSGSHVGENSKNPSEDSGQSGRLSQNATAEHNVLEKHLQEEYQMAKNTVNESFDSLKECSAASVIKGSYLLSQVVHIPEDAIEPEIPPDLQGPGGHVFLRMLSRSWRQYKRALEHNE | soluble
MQDLPPCPKCNDAYTYHDGTQLICPSCLYEWNENEVNDEELIVKDCHNNLLQNGDSVILIKDLKVKNSSLVLKKGTKIKNTKLVNSDHNVDCKIEGQSLSLKSEFLKKA | not soluble
MDIMNEKVKKIIEFMDKNSIDAVLIAKNPNVYYISGASPLAGGYILITGESATLYVPELEYEMAKEESNIPVEKFKKMDEFYKALEGIKSLGIESSLPYGFIEELKKKANIKEFKKVDDVIRDMRIIKSEKEIKIIEKACEIADKAVMAAIEEITEGKKEREVAAKVEYLMKMNGAEKPAFDTIIASGYRSALPHGVASDKRIERGDLVVIDLGALYQHYNSDITRTIVVGSPNEKQKEIYEIVLEAQKKAVESAKPGITAKELDSIARNIIAEYGYGEYFNHSLGHGVGLEVHEWPRVSQYDETVLREGMVITIEPGIYIPKIGGVRIEDTILITKNGSKRLTKTERELI | soluble
MVNQLIEPYGGTLVNLIDPEKREALKHEALSLPSLDLDWQQQCELEMLMTGAYSPLTGFMTRAQCARVESAQQLDDGSFWPSPITLTSRDRALADRRPGERLALRDGEGYMLAILTLSDVWKDGERWHLAGEVEGAALPPHPDFVSLRATPAELRALFVRRGWRRIIAWQARQPMHRAQYEFCLKSAIENEANLLLHPQVGGDITEAPAYFGLVRSFLAIRDRFPAATTQLSLLPAPPPEASGRALLLRAIVARNFGCSLLIAGGEHQPDGGDCRRGEDLTQNRVDPSVAERAEKIGVRLIAYPRMVYVEDRAEHLPEAEAPQGARLLTLSGEEFQRRMRAGLKIPEWYSFPEVLAELHRQTPPRERQGFTVFFTGLSGAGKSTLARALAARLMEMGGRCVTLLDGDIVRRHLSSELGFSKAHRDVNVRRIGFVASEITKNRGIAICAPIAPYRQTRRDVRAMIEAVGGFVEIHVATPIETCESRDRKGLYAKARAGLIPEFTGVSDPYEVPETPELAIDTTGLAIDEAVQQILLKLEHEGYLRLEHHHHHH | soluble
MMETQNVKDTVRQIFTEYLTANGHRKTPERYAILETIYSIDGHFDIDMLYSRMMDQENFRVSRATLYNTIILLINARLIIKHQFGTSSQYEKSYNRETHHHQICTQCGKVTEFQNEELQHAIENTKLSRFQLSHYSLYIYGLCSKCDRANKRKKVSNNNKKEK | not soluble
MSLNARSYLEQQLTGQNANAANALALAITQSQADKAMAETLINATFDQGYFHHIRWQGADGKVRVDRVNEAVFPAAPGWFRALLPLSPQPGSALVTAGWMQAGEIRVEAALGYAYESLWRGALQTMLWLLGTGLLAGLLGSIDIFKLRRDLQRVVNQARAISEHRFQRMTEPKVPELARVVGAMNQMVERLQSFLGEQSEEVEQLRRERHTDPVTGLPNREALEQAVSSTLAEEDDVRGCLLLLRLAGLAELNQRLGGERADALLVRLAADLEDLAARRKGWMAARLRGADFAVFCPELDMDGGRQLAETLCEQLALYRQMGLSDRDGIGHIGVCGIVQGDGLASLLARASQALAEAEAAGDNQWRVDDGAGPDVGSEWDWRELIEAACREHSLRLRWFPVRDAARGILWQEGMLYRPPMDGLPAINAMRLVSHSLRLGLSHLADLEALRLALADAPGAALAVNLSPASLAARGFQWQVTEMLAGSRATVSFEFDEAGLDEHWAAFLAFGEAVKGAGHRLAVEIRGHRLELVARLNQAGIDYLVLDGALTRGIHRDEGRKVLVKGVQRMTSLMGARLIAKGVASEEDARLLLELRVDGLTGPAEGHHHHHH | not soluble
MTEEFNESMINDIKEGDKVTGEVQEIEEKQVIVAVNGAKFNGIIPISQLSTHHIDNPSDAVKVGDEIGAYVTKVEYDEENETGAYILSKRQLETEKSYEFLQEQLDNNQTIEAKVTEVVKGGLVVDVGQRGFVPASLISTDFIEDFSDFEGQVLKLKVEELDPANNRVILSRKAVEALENAEKKDELLESLNEGDVIEGKVARLTNFGAFVDIGGVDGLVHVSELSHEHVKSPEDVVSIGETVNVKIKSVDKDSERISLSIKDTLPSPFESIKGEFNEGDVIEGTVVRLANFGAFVEIKPGVQGLVHISEISHSHIGSPSEALEPGQVVSVKVLGVDVENERISLSIKATLPNENVIESDSETTQSYLDNGSDDEDNPTLGDVFGDKLKDFKFLEHHHHHH | soluble
MDMESQKILFALSTPMEIRNECCLPSHSSPKMYLGTCFFDLSSSWGIDDRDDLLRTIHRMIDNGHAARLAGFYHRWFRYSPCEWRDYLAELNEQGQAYAQFVASTAECCGEGGIKAWDYVRMGFLSRMGVLNNWLSEEESLWIQSRIHLRALRYYSNWRQYFAGYTFGRQYWQSPEDDHLPLLREFLARKEYDDSGNDMFYQLFASDDAYYPTLSWQPLAYYSACPETLKDMSDL | not soluble
MGSDKIHHHHHHMSESDGQSTPQDTREVIMEATFRALSKHGYKDLRVRDIGEEMEMSRQVIHYHFDGKYDLISSFLEYIIDQYEGSVEVDDETDPRTELDVRIDRCLFGPEFDDFSHWDRMKVYHELYAYAQNDDEHRALFNEHYDRLRKSISTVIEDGVEQGTFLDVDAELMGQLITDVIHAARGRRIALGHEDAPDEAKRAVNDFILDSLYPPQ | not soluble
MDMTYNMRNAMASSRNMEEPQYDMSTIDLTQNSMNTNYLMNGSVLTNAYNNDYIVNNRDKYTGDMISQLKIDQGIPTYSHTLPMNGTTLADTNDSLNIQGMMRTNMDTTGFDGYSHIMNYNNTQNTIQTNPITYRMEDYNNLNNDVMYINPTTGEKFSAEYVNNIPTNDSDNMLYSNNFKNNSINMNTLLNSHYNNLPYPMPIYESMNNPQMYMQHMNQKQTVNIPLQHGEKKSAARNISTVNKRRIKTKKFFPCC | not soluble
QQKILENIRGIGTNTMTIFNGNGFGDRRSRHIQNLKISDANTLSKQSYIQSVTPNTSSSGILVVGNKSFTSANLYGIGEQYFDVEGLKLKQGRLLTEDDVDQSNQVVVLDESAKKAIFANENPLGKTVIFNKRPFRVIGVVSDQQLGGFPGNSLNLYSPYSTVLNKITGGSRIGSITVKISDDVNSTVAEKSLTELLKSLHGKKDFFIMNSDTIKQTIENTTGTMK | soluble
MSLTLISLQTFAAAWEEKLYNPMPDAEDVVLPMPCDGAMVFRKVYIPLAGPLDDYPVNIGGDNAEYGYVEQTHPAFIAGSFTTEKNAKSRYYLLAKYEMTVLQYSALTQAECPAPSNKQRLPVVSLSWMQAMEAADKYNIWLRENAADKLPKEDGVAGFLRLPTEVEWEFAARGGLNVSTAEFRDLRYPMPEGVNAYEWFAGTQSANGQLQLSGLLKPNPLGLHDMLGNVDEMMFEPFRLNKLDRQHGQAGGYVVRGGDFRTAQGELRSSLRKERNYYDAKAAATSKTTGVRLALASSTLTSRERVSSIETSWKEGHHHHHH | not soluble
MSLQKQRFCLDTTAITDSDVRKSLGVSNISESAEKIMDIIAQARVQLDISCHIPYDTVYKELVGFLTREGCAPETLIKVDTWLVKKTPNRYEIKIPAEIFYEYIKDLRERINKGMRISENAMYETALEAYILSKPDEKDREDVLNEVLSKTVNSFRVKYRNALRGGTLDSAPDLDVLLLAKELDAAVVANDEGIEKWAQRLGLRFVNARDFPFILQEYLDLWDKKEGHHHHHH | soluble
MVLFDVKKYETPDAKDVDMEQTKHNVSVFLSAYLAARCRVGQPREPKVTASFSLVPPSTAKNTFEAEQMLIQKEEAQEEFDYLHKLFVRGYSAIQHPHKPDVTERRKRIFYDRYINGNPIYLAAQRNCISEESVKQESNMIIVQFASALELVAFK | not soluble
MGSDKIHHHHHHMLVGREKELHLLHDIQNDDSSHFVAVYGRMREGKTFLIREAFGYRFTFQHAGLSEGGMKEQIYAFTSSLKDAGYEVKKQPQNWLEAFEALKDVIRLSSEKKKIIFIDELSWMDTQKSDLMVALENFWNGFASARKDIVLIVCASATSWMLSKVVHNKGGLYNRLTEQIHLRTFCLRECEAYVKAAGLALNRNQILQYYMIFGGVPYYWGFLKKGLSLSQNIDSILFEKDAPLRDEFKYLYASVFKKPENYVKIIEALGTKKVGMTREEIITSTKIPNSGDLTTKLEELESCGFIRKYNAFGMKKKNAIYQLMDCFTLFYFKFLKSEPTDEHFWTNQINTPAVNTWLGLAFERVCMEHVDQIKFKLGISGVLTEINSWYCKSDPDNGIFGSQIDMLIARKDQVINLCEMKYSQSEYTITEKVDRSIRNKISDLRVVSGTKYAIYPTLITTYGVVENSYSQELQSVVTMDDLFA | not soluble
